Measurements as given in patent US20160272683A1 (Novo Nordisk, published 2016).
Numbered stars: 1 amine (or outer) side, 2 acyl side, 3 side chain; on linkers, the order of the positions; unused ones are H or OH. Side chains are listed from the residue outwards. Ends that are not written are not given here. * marks the point of attachment. C20 diacid = O=C(O)CCCCCCCCCCCCCCCCCCC(=O)*; C18 diacid = O=C(O)CCCCCCCCCCCCCCCCC(=O)*; γGlu = O=C(O)[C@H](CCC(=O)[*:2])N[*:1]

T1: human amylin 3(a) receptor (human calcitonin receptor co-expressed with RAMP-3) on BHK570/CRE-luc cells (human, UniProt P30988 25-474; O60896 24-148)
T1 sequence (looked up) 1: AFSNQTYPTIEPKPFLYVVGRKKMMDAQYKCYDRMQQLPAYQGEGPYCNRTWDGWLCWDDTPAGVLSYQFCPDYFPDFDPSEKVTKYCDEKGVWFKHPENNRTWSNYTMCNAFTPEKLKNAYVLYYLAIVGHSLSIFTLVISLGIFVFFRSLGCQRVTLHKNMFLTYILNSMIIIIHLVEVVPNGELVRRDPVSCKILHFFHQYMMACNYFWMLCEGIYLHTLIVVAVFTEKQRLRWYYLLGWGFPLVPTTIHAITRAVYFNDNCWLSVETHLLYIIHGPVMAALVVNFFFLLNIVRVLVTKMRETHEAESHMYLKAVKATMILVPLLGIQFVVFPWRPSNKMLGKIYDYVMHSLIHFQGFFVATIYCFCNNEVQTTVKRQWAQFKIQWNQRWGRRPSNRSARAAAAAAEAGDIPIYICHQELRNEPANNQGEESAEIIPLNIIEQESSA
T1 sequence (looked up) 2: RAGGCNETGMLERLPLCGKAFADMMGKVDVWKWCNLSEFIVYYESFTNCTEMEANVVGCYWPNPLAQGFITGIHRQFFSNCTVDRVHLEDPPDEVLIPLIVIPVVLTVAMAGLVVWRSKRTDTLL

T2: human calcitonin receptor on BHK570/CRE-luc cells (human, UniProt P30988 25-474)
T2 sequence (looked up): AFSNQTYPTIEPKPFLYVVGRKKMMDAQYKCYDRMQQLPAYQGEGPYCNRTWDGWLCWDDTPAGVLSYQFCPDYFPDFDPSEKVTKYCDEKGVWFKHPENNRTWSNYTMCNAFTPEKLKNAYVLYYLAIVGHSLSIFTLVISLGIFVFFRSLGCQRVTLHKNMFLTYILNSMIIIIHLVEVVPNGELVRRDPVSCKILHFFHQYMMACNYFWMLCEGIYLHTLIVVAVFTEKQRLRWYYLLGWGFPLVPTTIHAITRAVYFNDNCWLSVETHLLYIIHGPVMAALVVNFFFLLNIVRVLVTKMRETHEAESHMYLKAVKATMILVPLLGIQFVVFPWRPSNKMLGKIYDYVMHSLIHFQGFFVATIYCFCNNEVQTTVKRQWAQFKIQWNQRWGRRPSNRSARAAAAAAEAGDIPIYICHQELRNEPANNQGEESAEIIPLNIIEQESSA

B1: [N-terminal(C20 diacid-gGlu), des1, 4G, 15Q, 21Q, 23Y, 30S, 31Q, 32T, 33Y]mimylin (peptide)
peptide: {C20 diacid-γGlu}-ASGLSTAALGRLSQELHELQTYPRTETGSQTY-NH2
SMILES: CC(C)C[C@H](NC(=O)CNC(=O)[C@H](CO)NC(=O)[C@H](C)NC(=O)CC[C@H](NC(=O)CCCCCCCCCCCCCCCCCCC(=O)O)C(=O)O)C(=O)N[C@@H](CO)C(=O)N[C@H](C(=O)N[C@@H](C)C(=O)N[C@@H](C)C(=O)N[C@@H](CC(C)C)C(=O)NCC(=O)N[C@@H](CCCNC(=N)N)C(=O)N[C@@H](CC(C)C)C(=O)N[C@@H](CO)C(=O)N[C@@H](CCC(N)=O)C(=O)N[C@@H](CCC(=O)O)C(=O)N[C@@H](CC(C)C)C(=O)N[C@@H](Cc1c[nH]cn1)C(=O)N[C@@H](CCC(=O)O)C(=O)N[C@@H](CC(C)C)C(=O)N[C@@H](CCC(N)=O)C(=O)N[C@H](C(=O)N[C@@H](Cc1ccc(O)cc1)C(=O)N1CCC[C@H]1C(=O)N[C@@H](CCCNC(=N)N)C(=O)N[C@H](C(=O)N[C@@H](CCC(=O)O)C(=O)N[C@H](C(=O)NCC(=O)N[C@@H](CO)C(=O)N[C@@H](CCC(N)=O)C(=O)N[C@H](C(=O)N[C@@H](Cc1ccc(O)cc1)C(N)=O)[C@@H](C)O)[C@@H](C)O)[C@@H](C)O)[C@@H](C)O)[C@@H](C)O
B2: [des1, 4G, 15Q, 21Q, 23Y, 30S, 31K(C20 diacid-gGlu), 32T, 33Y]mimylin (peptide)
peptide: ASGLSTAALGRLSQELHELQTYPRTETGSK([γGlu-C20 diacid])TY-NH2
modifications: N-terminus assumed
SMILES: CC(C)C[C@H](NC(=O)CNC(=O)[C@H](CO)NC(=O)[C@H](C)N)C(=O)N[C@@H](CO)C(=O)N[C@H](C(=O)N[C@@H](C)C(=O)N[C@@H](C)C(=O)N[C@@H](CC(C)C)C(=O)NCC(=O)N[C@@H](CCCNC(=N)N)C(=O)N[C@@H](CC(C)C)C(=O)N[C@@H](CO)C(=O)N[C@@H](CCC(N)=O)C(=O)N[C@@H](CCC(=O)O)C(=O)N[C@@H](CC(C)C)C(=O)N[C@@H](Cc1c[nH]cn1)C(=O)N[C@@H](CCC(=O)O)C(=O)N[C@@H](CC(C)C)C(=O)N[C@@H](CCC(N)=O)C(=O)N[C@H](C(=O)N[C@@H](Cc1ccc(O)cc1)C(=O)N1CCC[C@H]1C(=O)N[C@@H](CCCNC(=N)N)C(=O)N[C@H](C(=O)N[C@@H](CCC(=O)O)C(=O)N[C@H](C(=O)NCC(=O)N[C@@H](CO)C(=O)N[C@@H](CCCCNC(=O)CC[C@H](NC(=O)CCCCCCCCCCCCCCCCCCC(=O)O)C(=O)O)C(=O)N[C@H](C(=O)N[C@@H](Cc1ccc(O)cc1)C(N)=O)[C@@H](C)O)[C@@H](C)O)[C@@H](C)O)[C@@H](C)O)[C@@H](C)O
B3: [N-terminal(C18 diacid-gGlu), des1, 4G, 15Q, 21Q, 23Y, 30S, 31G, 32T, 33Y]mimylin (peptide)
peptide: {C18 diacid-γGlu}-ASGLSTAALGRLSQELHELQTYPRTETGSGTY-NH2
SMILES: CC(C)C[C@H](NC(=O)CNC(=O)[C@H](CO)NC(=O)[C@H](C)NC(=O)CC[C@H](NC(=O)CCCCCCCCCCCCCCCCC(=O)O)C(=O)O)C(=O)N[C@@H](CO)C(=O)N[C@H](C(=O)N[C@@H](C)C(=O)N[C@@H](C)C(=O)N[C@@H](CC(C)C)C(=O)NCC(=O)N[C@@H](CCCNC(=N)N)C(=O)N[C@@H](CC(C)C)C(=O)N[C@@H](CO)C(=O)N[C@@H](CCC(N)=O)C(=O)N[C@@H](CCC(=O)O)C(=O)N[C@@H](CC(C)C)C(=O)N[C@@H](Cc1c[nH]cn1)C(=O)N[C@@H](CCC(=O)O)C(=O)N[C@@H](CC(C)C)C(=O)N[C@@H](CCC(N)=O)C(=O)N[C@H](C(=O)N[C@@H](Cc1ccc(O)cc1)C(=O)N1CCC[C@H]1C(=O)N[C@@H](CCCNC(=N)N)C(=O)N[C@H](C(=O)N[C@@H](CCC(=O)O)C(=O)N[C@H](C(=O)NCC(=O)N[C@@H](CO)C(=O)NCC(=O)N[C@H](C(=O)N[C@@H](Cc1ccc(O)cc1)C(N)=O)[C@@H](C)O)[C@@H](C)O)[C@@H](C)O)[C@@H](C)O)[C@@H](C)O
B4: [N-terminal(C18 diacid-gGlu), des1, 6T, 9V, 14E, 21T, 30T, 31G, 32T]mimylin (peptide)
peptide: {C18 diacid-γGlu}-ASELTTAVLGRLEAELHELTTLPRTETGTGTP-NH2
B5: [N-terminal(C20 diacid), des1, 4G, 15Q, 21Q, 23Y, 30S, 31G, 32T, 33Y]mimylin (peptide)
peptide: {C20 diacid}-ASGLSTAALGRLSQELHELQTYPRTETGSGTY-NH2
SMILES: CC(C)C[C@H](NC(=O)CNC(=O)[C@H](CO)NC(=O)[C@H](C)NC(=O)CCCCCCCCCCCCCCCCCCC(=O)O)C(=O)N[C@@H](CO)C(=O)N[C@H](C(=O)N[C@@H](C)C(=O)N[C@@H](C)C(=O)N[C@@H](CC(C)C)C(=O)NCC(=O)N[C@@H](CCCNC(=N)N)C(=O)N[C@@H](CC(C)C)C(=O)N[C@@H](CO)C(=O)N[C@@H](CCC(N)=O)C(=O)N[C@@H](CCC(=O)O)C(=O)N[C@@H](CC(C)C)C(=O)N[C@@H](Cc1c[nH]cn1)C(=O)N[C@@H](CCC(=O)O)C(=O)N[C@@H](CC(C)C)C(=O)N[C@@H](CCC(N)=O)C(=O)N[C@H](C(=O)N[C@@H](Cc1ccc(O)cc1)C(=O)N1CCC[C@H]1C(=O)N[C@@H](CCCNC(=N)N)C(=O)N[C@H](C(=O)N[C@@H](CCC(=O)O)C(=O)N[C@H](C(=O)NCC(=O)N[C@@H](CO)C(=O)NCC(=O)N[C@H](C(=O)N[C@@H](Cc1ccc(O)cc1)C(N)=O)[C@@H](C)O)[C@@H](C)O)[C@@H](C)O)[C@@H](C)O)[C@@H](C)O
B6: [N-terminal(C20 diacid-gGlu), des1, 4G, 9V, 23Y, 30S, 31G, 32T, 33Y]mimylin (peptide)
peptide: {C20 diacid-γGlu}-ASGLSTAVLGRLSAELHELATYPRTETGSGTY-NH2
SMILES: CC(C)C[C@H](NC(=O)CNC(=O)[C@H](CO)NC(=O)[C@H](C)NC(=O)CC[C@H](NC(=O)CCCCCCCCCCCCCCCCCCC(=O)O)C(=O)O)C(=O)N[C@@H](CO)C(=O)N[C@H](C(=O)N[C@@H](C)C(=O)N[C@H](C(=O)N[C@@H](CC(C)C)C(=O)NCC(=O)N[C@@H](CCCNC(=N)N)C(=O)N[C@@H](CC(C)C)C(=O)N[C@@H](CO)C(=O)N[C@@H](C)C(=O)N[C@@H](CCC(=O)O)C(=O)N[C@@H](CC(C)C)C(=O)N[C@@H](Cc1c[nH]cn1)C(=O)N[C@@H](CCC(=O)O)C(=O)N[C@@H](CC(C)C)C(=O)N[C@@H](C)C(=O)N[C@H](C(=O)N[C@@H](Cc1ccc(O)cc1)C(=O)N1CCC[C@H]1C(=O)N[C@@H](CCCNC(=N)N)C(=O)N[C@H](C(=O)N[C@@H](CCC(=O)O)C(=O)N[C@H](C(=O)NCC(=O)N[C@@H](CO)C(=O)NCC(=O)N[C@H](C(=O)N[C@@H](Cc1ccc(O)cc1)C(N)=O)[C@@H](C)O)[C@@H](C)O)[C@@H](C)O)[C@@H](C)O)C(C)C)[C@@H](C)O
B7: [N-terminal(C20 diacid-gGlu), des1, 4G, 15Q, 21E, 23Y, 30S, 31G, 32T, 33Y]mimylin (peptide)
peptide: {C20 diacid-γGlu}-ASGLSTAALGRLSQELHELETYPRTETGSGTY-NH2
SMILES: CC(C)C[C@H](NC(=O)CNC(=O)[C@H](CO)NC(=O)[C@H](C)NC(=O)CC[C@H](NC(=O)CCCCCCCCCCCCCCCCCCC(=O)O)C(=O)O)C(=O)N[C@@H](CO)C(=O)N[C@H](C(=O)N[C@@H](C)C(=O)N[C@@H](C)C(=O)N[C@@H](CC(C)C)C(=O)NCC(=O)N[C@@H](CCCNC(=N)N)C(=O)N[C@@H](CC(C)C)C(=O)N[C@@H](CO)C(=O)N[C@@H](CCC(N)=O)C(=O)N[C@@H](CCC(=O)O)C(=O)N[C@@H](CC(C)C)C(=O)N[C@@H](Cc1c[nH]cn1)C(=O)N[C@@H](CCC(=O)O)C(=O)N[C@@H](CC(C)C)C(=O)N[C@@H](CCC(=O)O)C(=O)N[C@H](C(=O)N[C@@H](Cc1ccc(O)cc1)C(=O)N1CCC[C@H]1C(=O)N[C@@H](CCCNC(=N)N)C(=O)N[C@H](C(=O)N[C@@H](CCC(=O)O)C(=O)N[C@H](C(=O)NCC(=O)N[C@@H](CO)C(=O)NCC(=O)N[C@H](C(=O)N[C@@H](Cc1ccc(O)cc1)C(N)=O)[C@@H](C)O)[C@@H](C)O)[C@@H](C)O)[C@@H](C)O)[C@@H](C)O
B8: [N-terminal(C18 diacid-gGlu), des1, 6T, 9V, 14T, 21E, 30T, 31G, 32T]mimylin (peptide)
peptide: {C18 diacid-γGlu}-ASELTTAVLGRLTAELHELETLPRTETGTGTP-NH2
SMILES: CC(C)C[C@H](NC(=O)[C@H](CCC(=O)O)NC(=O)[C@H](C)NC(=O)[C@@H](NC(=O)[C@H](CC(C)C)NC(=O)[C@H](CCCNC(=N)N)NC(=O)CNC(=O)[C@H](CC(C)C)NC(=O)[C@@H](NC(=O)[C@H](C)NC(=O)[C@@H](NC(=O)[C@@H](NC(=O)[C@H](CC(C)C)NC(=O)[C@H](CCC(=O)O)NC(=O)[C@H](CO)NC(=O)[C@H](C)NC(=O)CC[C@H](NC(=O)CCCCCCCCCCCCCCCCC(=O)O)C(=O)O)[C@@H](C)O)[C@@H](C)O)C(C)C)[C@@H](C)O)C(=O)N[C@@H](Cc1c[nH]cn1)C(=O)N[C@@H](CCC(=O)O)C(=O)N[C@@H](CC(C)C)C(=O)N[C@@H](CCC(=O)O)C(=O)N[C@H](C(=O)N[C@@H](CC(C)C)C(=O)N1CCC[C@H]1C(=O)N[C@@H](CCCNC(=N)N)C(=O)N[C@H](C(=O)N[C@@H](CCC(=O)O)C(=O)N[C@H](C(=O)NCC(=O)N[C@H](C(=O)NCC(=O)N[C@H](C(=O)N1CCC[C@H]1C(N)=O)[C@@H](C)O)[C@@H](C)O)[C@@H](C)O)[C@@H](C)O)[C@@H](C)O

What was measured:
[1] = target: T1, human amylin 3(a) receptor (human …); experiment: cell-based or functional assay
[2] = target: T2, human calcitonin receptor on …; experiment: cell-based or functional assay

Binder	hAmylin-R funct. EC50 (pM), tested with HSA [1]	hCTR funct. EC50 (pM), tested with HSA [2]
B1	158 pM	108 pM
B2	335 pM	113 pM
B3	70 pM	53 pM
B4	157 pM	31 pM
B5	52 pM	49 pM
B6	122 pM	53 pM
B7	150 pM	68 pM
B8	179 pM	22 pM
